Measured values taken from US20240226163A1 (Regeneron, published 2024).

Assays:
[1] = biological target: T1, HLA-A*02:01 presenting PCDHGC3 337-345 peptide (…) (human); experiment: flow cytometry, peptide-pulsed T2 cells
T1 construct: On peptide-pulsed T2 cells; also called T2 Pulsed PCDHGC3 337-345

[2] = biological target: T2, HLA-A*02:01 presenting RABGAP1L 408-416 peptide (…) (human); experiment: flow cytometry, peptide-pulsed T2 cells
T2 construct: On peptide-pulsed T2 cells; also called T2 Pulsed RABGAP1L 408-416

[3] = biological target: T3, HLA-A*02:01 presenting CARD8 170-178 peptide (…) (human); experiment: flow cytometry, peptide-pulsed T2 cells
T3 construct: On peptide-pulsed T2 cells; also called T2 Pulsed CARD8 170-178

[4] = biological target: T4, HLA-A*02:01 presenting SMIM11A 4-12 peptide (…) (human); experiment: flow cytometry, peptide-pulsed T2 cells
T4 construct: On peptide-pulsed T2 cells; also called T2 Pulsed SMIM11A 4-12

[5] = biological target: T5, HLA-A*02:01 presenting NBAS 2063-2071 peptide (…) (human); experiment: flow cytometry, peptide-pulsed T2 cells
T5 construct: On peptide-pulsed T2 cells; also called T2 Pulsed NBAS 2063-2071

[6] = biological target: T6, HLA-A*02:01 presenting FN1 2182-2190 peptide (…) (human); experiment: flow cytometry, peptide-pulsed T2 cells
T6 construct: On peptide-pulsed T2 cells; also called T2 Pulsed FN1 2182-2190

[7] = biological target: T7, HLA-A*02:01 presenting PLEKHH2 790-798 peptide (…) (human); experiment: flow cytometry, peptide-pulsed T2 cells
T7 construct: On peptide-pulsed T2 cells; also called T2 Pulsed PLEKHH2 790-798

[8] = biological target: T8, HLA-A*02:01 presenting HEATR5A 1925-1933 peptide (…) (human); experiment: flow cytometry, peptide-pulsed T2 cells
T8 construct: On peptide-pulsed T2 cells

[9] = biological target: T9, HLA-A*02:01 presenting TEP1 2156-2164 peptide (…) (human); experiment: flow cytometry, peptide-pulsed T2 cells
T9 construct: On peptide-pulsed T2 cells; also called T2 Pulsed TEP1 2156-2164

[10] = biological target: T10, HLA-A*02:01 presenting PSME2 145-153 peptide (…) (human); experiment: flow cytometry, peptide-pulsed T2 cells
T10 construct: On peptide-pulsed T2 cells; also called T2 Pulsed PSME2 145-153

[11] = biological target: T11, HLA-A*02:01 presenting CNOT1 1965-1973 peptide (…) (human); experiment: flow cytometry, peptide-pulsed T2 cells
T11 construct: On peptide-pulsed T2 cells; also called T2 Pulsed CNOT1 1965-1973

[12] = biological target: T12, HLA-A*02:01 presenting MRPL37 334-342 peptide (…) (human); experiment: flow cytometry, peptide-pulsed T2 cells
T12 construct: On peptide-pulsed T2 cells; also called T2 Pulsed MRPL37 334-342

[13] = biological target: HLA-A*02:01 presenting MAGE-A4 286-294 peptide (…) (human); experiment: cell-based or functional assay
[14] = biological target: HLA-A*02:01 presenting MAGE-A4 286-294 peptide (…) (human); experiment: cell-based or functional assay; remark: listed apart in the source

B1: bsAb6043 (bispecific antibody, V domains shown)
VH 1: QVQLVESGGGLVKPGGSLRLSCAASGFTFSEYYLTWIRQAPGKGLDWIAYISSSGYNIYYADSVKDRFTISRDNGKNSLFLQMNNLRAEDTAVYFCAREGVTDGMDVWGQGTTVTVSS
VH 2: EVQLVESGGGLVQPGRSLRLSCAASGFTFDDYSMHWVRQAPGKGLEWVSGISWNSGSKGYADSVKGRFTISRDNAKNSLYLQMNSLRAEDTALYYCAKYGSGYGKFYHYGLDVWGQGTTVTVSS
VL: DIQMTQSPSSLSASVGDRVTITCRASQSIDTFLNWYQQKPGKVPKLLIYAASNLESGVPSRFSGSGSGTVFTLTISRLQPEDFATYYCQQSYSIPPITFGQGTRVEIK
notes: Only variable regions are tied to the bispecific; also called MAGE-A4×CD3 (7221G) bispecific antibody
- binding result [1]: no binding
- binding result [2]: no binding
- binding result [3]: no binding
- binding result [4]: no binding
- binding result [5]: no binding
- binding result [6]: no binding
- binding result [7]: no binding
- binding result [8]: no binding
- binding result [9]: no binding
- binding result [10]: no binding
- binding result [11]: no binding
- binding result [12]: no binding
- Fold Activation, NF-κB luciferase, Jurkat/NF-κB Luc + IM-9 [13]: 1.8 fold
- Fold Activation, NF-κB luciferase, Jurkat/NF-κB Luc + U266 [13]: 0.9 fold
- EC50 (M), Jurkat/NF-κB-Luc reporter with pulsed T2 cells [14]: 3e-10 M
- Fold change, Jurkat/NF-κB-Luc reporter with pulsed T2 cells [14]: 75.3 fold
